In patent US20110064733A1:

Tests used:
[1] = target: Muc1 mucin bearing the CA6 sialoglycotope (DS6 antigen), as expressed by CA6-positive human tumour cell lines (human) (UniProt P15941); assay: flow cytometry on KB cells
[2] = target: Muc1 mucin bearing the CA6 sialoglycotope (DS6 antigen), as expressed by CA6-positive human tumour cell lines (human) (UniProt P15941); assay: flow cytometry on MCF7 cells
[3] = target: Muc1 mucin bearing the CA6 sialoglycotope (DS6 antigen), as expressed by CA6-positive human tumour cell lines (human) (UniProt P15941); assay: flow cytometry on CaOV3 cells
[4] = target: Muc1 mucin bearing the CA6 sialoglycotope (DS6 antigen), as expressed by CA6-positive human tumour cell lines (human) (UniProt P15941); assay: flow cytometry on HeLa cells
[5] = target: Muc1 mucin bearing the CA6 sialoglycotope (DS6 antigen), as expressed by CA6-positive human tumour cell lines (human) (UniProt P15941); assay: flow cytometry on BT549 cells

CM1 antibody (Muc1 VNTR antibody)
MMF (maximum mean relative fluorescence) (relative fluorescence) [1]: 338
MMF (maximum mean relative fluorescence) (relative fluorescence) [2]: 1020
MMF (maximum mean relative fluorescence) (relative fluorescence) [3]: 1030
MMF (maximum mean relative fluorescence) (relative fluorescence) [4]: 335
MMF (maximum mean relative fluorescence) (relative fluorescence) [5]: 188
